For assay [1], the system named is MCF-7 cells. The assay can be described thus: Colony formation assay (cell proliferation assay, crystal violet). Conditions: MCF-7, continuous expression 2 weeks, compared to AptaLib and human thioredoxin. It is filed as cell-based. The procedure: (§1) (B) Colony formation assays. Hela or MCF-7 cells were transfected with plasmids directing the stable expression of the Cdk inhibitor p21, a library of peptide aptamers from pBK1 (AptaLib), Human thioredoxin (HTRX), and peptide aptamers R7G44, R5G42, R5G52. The cells were cultured for two weeks and the colonies were stained with crystal violet.
(§2) The inventors wished to establish the antiproliferative activity of these peptide aptamers using alternative cellular models and a non-retroviral vector to express individually each aptamer. They cloned the aptamer coding genes into a vector bearing a hygromycin selection marker. They also subcloned the pBK1 library into this vector, to create “AptaLib”. They continuously expressed the aptamers, the empty thioredoxin scaffold or AptaLib in Hela and MCF-7 cells for 2 weeks and they stained the cells that grew. […] These aptamers may originate from the remaining background of slowly proliferating cells during the seventh screening iteration, independently of the expressed aptamers. […] This could be due to the fact that the CMTMR assay is more sensitive in detecting modest antiproliferative effects than the colony formation assay or that some peptide aptamers somehow enhance the CMTMR labeling of their host cells.
(§3) To stably express peptide aptamers in mammalian cells, the episomal eukaryotic expression vector pCEP4 that bears a CMV promoter and a hygromycin selection marker (InVitrogen) was used. Aptamer coding sequences were PCR amplified using the oligonucleotides
(§4) that contained a stop codon. The PCR products were digested with NheI and NotI and ligated into NheI/NotI-cut pCEP4 to create pEA-aptamer plasmids. 3×10^5 cells/well were plated in 6-well plates and transfected 24 h after using Jet PEI (Qbiogen), 3.7 μg pEA-aptamer plasmids and 0.3 μg pEGFP-C1 (Clontech) to monitor transfection. Hygromycin (InVitrogen) was added at 200 μg/ml two days later and the cells were cultured for 2 weeks, renewing the medium twice a week. The cells were then rinsed in PBS and were fixed and stained by incubating 30 min in crystal violet (0.05% crystal violet, 20% ethanol, 0.37% formaldehyde). Excess crystal violet was removed by washing with water. In Vitro Phosphatase Assay

Assay [2] concerns Hela cells. Described as above. Conditions: continuous expression 2 weeks, compared to AptaLib and human thioredoxin. The assay is classed as cell-based. The protocol:
as §1, §2, §3, §4

Assay [3] relates to CNA. The experiment in a line: Yeast two-hybrid assay. Conditions: mating assay, LexA-aptamer fusions. The assay is classed as binding, human. The source says: (A) Yeast two-hybrid mating assay. TB50α yeast were co-transformed with pSH18-34T (bearing a lacZ reporter gene) and plasmids directing the expression of LexA alone or in fusion with peptide aptamers R5G42, R7G44 or R5G52. MB210a yeast were transformed with the selected cDNA library plasmids directing the expression of CNAβ, CNAγ, and NS5ATP2 truncated proteins. To obtain negative controls, MB210a yeast were also transformed with the empty prey plasmid (pJG4-5) and with pJG4-5 directing the expression of Ras and FKBP12 prey proteins. To obtain a positive control, MB210a yeast were transformed with pJG4-5 directing the expression of RG22 peptide aptamer prey fusion protein that interacts with LexA in the context of most LexA fusion proteins.
The inventors set out to map the R5G42 binding site on CNA. The CNA interacting clones selected in the yeast two-hybrid experiments corresponded to the carboxy-terminal regions of the beta and gamma isoforms, encompassing the calmodulin-binding domain and the auto-inhibitory domain (see FIG. 3B). […] The LexA-R5G52 bait protein may thus not be properly expressed and/or folded in this yeast two-hybrid setting.
(§5) The inventors explored the ability of R5G42 mutants having a one amino acid change as compared to R5G42, to bind to CNA beta and gamma C-Terminal fragments (FIG. 3b) and to NS5A-TP2. To this end, they proceeded to yeast-two hybrid assays as in example 3. CNA beta and gamma C-Terminal fragments (FIG. 3b) and NS5A-TP2 were cloned in three different plasmids (pSH18-34, pJK103 and pRB18-40), which differed from each other in the level of sensitivity of their promoter to the bait/prey complex formation, pSH18-34 having the highest sensitivity and pRB18-40 having the lowest.
The 5′ end of RH6 (upper case) matches part of the HA epitope tag and the 5′ ends of RH4, RH3 and RH7 (upper case) match the 5′ extremity of the ADH terminator. The PCR reactions was performed using pCMV-SPORT6-CnAβ as a template. CnAβCter Δ1, Δ2, CaM were constructed by combining oligonucleotides RH6/RH4, RH6/RH3, RH6/RH7, respectively. […]

The target of assay [4] is T1, CNA beta C-terminal fragment (Homo sapiens, UniProt P16298).
T1 construct: expressed in transfected cells; host or cells: yeast (MB210a transformed with library plasmid, mated with bait strain)
The assay can be described thus: Yeast two-hybrid assays of R5G42 mutants. It is filed as binding. Conditions: plasmids pSH18-34, pJK103, pRB18-40. The procedure: (§6) The capacity of R5G42 mutants having a one amino acid change as compared to R5G42 to bind CNA beta and gamma C-Terminal fragments (FIG. 3b) and NS5A-TP2 was tested in yeast two-hybrid assays. CNA beta and gamma C-Terminal fragments and NS5A-TP2 were cloned in three different vectors (pSH18-34, pJK103 and pRB18-40). These three plasmids differ from each other in the level of sensitivity of their promoter, pSH18-34 having the highest sensitivity and pRB18-40 having the lowest.
as §5

For assay [5], the system named is Raw1 cells (osteoclasts precursors). The assay can be described thus: Raw cell differentiation assay (osteoclast differentiation). The assay is classed as cell-based. An excerpt:
Trx, CNA* and Peptide aptamers R5G42, C2, C7, C8 and N9 were transfected into RAW1 cells and left for four days in absence of the normal differentiation factor RANKL. CNA* is activated calcineurin A which elicits a robust differentiation response.
The inventors assessed the ability of some CNA-specific peptide aptamers to promote osteoclast differentiation via the activation of CNA. […] The differentiation state was then observed 4 days post-transfection.
Raw1 cells were transfected with the following plasmids: pCI-HA-Trx (negative control), pCI-HA CNA* (positive control for differentiation activation), pCI-HA R5G42, pCI-HA R5G42-C2, pCI-HA R5G42-C7, pCI-HA R5G42-C8 and pCI-HA R5G42-N9. The sequence of CNA* is the same as that of CNA8 (see FIG. 17, SEQ ID 42). The sequences of the R5G42 (SEQ ID 22), C2 (SEQ ID 23), C7 (SEQ ID 27), C8 (SEQ ID 28) and N9 (SEQ ID 33) aptamers is shown on FIG. 8.
One day before the transfection, Raw I cells were plated in 6-well dishes at 50 cell/mm^2. Transfection was performed with FuGene 6 Reagent (Roche) using 2 μg of each plasmid and following supplier recommendations.
8 h after transfection D-MEM was changed with α-MEM. In the control dishes α-MEM+50 ng/ml RANKL was added. After 2 days, medium was changed with a fresh medium. The differentiation state was then observed 4 days post-transfection.

In assay [6] the test system is CNA gamma C-terminal fragment. The assay can be described thus: Yeast two-hybrid assays of R5G42 mutants. It is filed as binding, human. Conditions: plasmids pSH18-34, pJK103, pRB18-40. The protocol: as §6, §5
Sequence of CNA gamma C-terminal fragment (P48454 386-512 limits assumed): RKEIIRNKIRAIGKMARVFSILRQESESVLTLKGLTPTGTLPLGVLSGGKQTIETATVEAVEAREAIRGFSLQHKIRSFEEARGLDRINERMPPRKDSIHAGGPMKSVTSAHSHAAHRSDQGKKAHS
Assay [7] addresses T2, NS5A-TP2 (Homo sapiens, UniProt Q7Z4H3).
T2 construct: expressed in transfected cells; host or cells: yeast
T2 sequence (Q7Z4H3 1-204): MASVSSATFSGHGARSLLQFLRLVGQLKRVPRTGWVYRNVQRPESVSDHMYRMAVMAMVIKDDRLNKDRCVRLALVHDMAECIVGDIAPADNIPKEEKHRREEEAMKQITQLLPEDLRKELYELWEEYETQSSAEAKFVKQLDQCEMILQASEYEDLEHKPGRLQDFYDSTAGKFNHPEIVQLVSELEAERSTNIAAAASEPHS
The assay can be described thus: Further yeast two-hybrid binding assays (higher sensitivity). The source says: FIG. 14. Specificity of aptamers according to the invention for CNA and NS5A-TP2 Interaction matrix between peptide aptamers R5G42, C2, C7, C8, N9, R5G44 and R5G52 with CNA constructs CNA1-CNA8 (A) CNA9-11 (B) and NS5A-TP2 (C). An interaction phenotype between CNA3/CNA 11, which both contain the Calmodulin binding domain (CaM) and the auto-inhibitory domain (Al) but not the CNB binding domain (CNB) and the aptamers R5G42, C2, C7, C8 and N9 is observed in a two-hybrid assay. R5G44 and R5G52 aptamers recognize neither the CNA fragments, nor NS5A-TP2. Only aptamers R5G42 and N9 recognize NS5A-TP2.
The inventors proceeded to further yeast two-hybrid binding assays between peptide aptamers R5G42 (SEQ ID 22), C2 (SEQ ID 23), C7 (SEQ ID 27), C8 (SEQ ID 28), N9 (SEQ ID 33), R5G44 and R5G52 with CNA constructs CNA1-CNA8 (FIG. 14A), CNA9-CNA11 (FIG. 14B) and NS5A-TP2 (SEQ ID 15) (FIG. 14C). The sensitivity of this yeast two-hybrid assay was higher than in the experiment reported above.

Setting [8] is: 4 days post-transfection, absence of RANKL.

For the molecule “R7G11: peptide aptamer: variable region LHLAGRGWEN in human thioredoxin (SEQ ID 30) (Aptamer variable sequence of R7G11)”, the “inhibition of cell proliferation (colony formation)” value in assay [1] and in assay [2] was “did not inhibit cell proliferation” throughout.

Turning to “R7G44: peptide aptamer: variable region HQSTIGVAEF in human thioredoxin (SEQ ID 31); control without antiproliferative effect”, the “yeast two-hybrid interaction phenotype with CNA” value in assay [3] is “did not show an interaction phenotype”. The “inhibition of cell proliferation (colony formation)” value in assay [1] and in assay [2] was “did not exert any antiproliferative effect” throughout.

B1: C2: R5G42 mutant having a one amino acid change (SEQ ID 23) (protein)
chain: MVKQIESKTAFQEALDAAGDKLVVVDFSATWCGPSAVTFAVCALGPCKMIKLFFHSLSEKYSNVIFLEVDVDDCQDVASECEVKCMPTFQFFKKGQKVGEFSGANKEKLEATINELV
modifications: Aptamer R5G42 mutant C2
As for B1, the yeast two-hybrid interaction result in assay [4] and in assay [6] was “shown to interact” throughout. Besides, the osteoclast differentiation result in assay [5] (setting [8]) is on record as “no osteoclasts fully differentiated were detectable”. For the same molecule, in assay [7], the “recognition of NS5A-TP2” value is “only aptamers which recognized NS5A-TP2 were R5G42 and N9”.

B2: C8: R5G42 mutant having a one amino acid change (SEQ ID 28) (protein)
chain: MVKQIESKTAFQEALDAAGDKLVVVDFSATWCGPSAVTIAVCALGPCKMIKPFFHSLSEKYSNVIFLEVDVDDCQDVASECEVKCMPTFQFFKKGQKVGEFSGANKEKLEATINELV
modifications: Aptamer R5G42 mutant C8
Turning to B2, the yeast two-hybrid interaction result in assay [4] and in assay [6] was “shown to interact” in each case. The osteoclast differentiation entry in assay [5] (setting [8]) was “no osteoclasts fully differentiated were detectable”. Moreover, the “recognition of NS5A-TP2” value in assay [7] was “only aptamers which recognized NS5A-TP2 were R5G42 and N9”.

B3: C7: R5G42 mutant having a one amino acid change (SEQ ID 27) (protein)
chain: MVKQIESKTAFQEALDAAGDKPVVVDFSATWCGPSAVTFAVCALGPCKMIKPFFHSLSEKYSNVIFLEVDVDDCQDVASECEVKCMPTFQFFKKGQKVGEFSGANKEKLEATINELV
modifications: Aptamer R5G42 mutant C7
B3: the yeast two-hybrid interaction result in assay [4] and in assay [6] was “shown to interact” throughout. In addition, in assay [5] (setting [8]), the osteoclast differentiation result is on record as “Some cells with the osteoclast phenotype can be observed”. In assay [7], the “recognition of NS5A-TP2” value was “only aptamers which recognized NS5A-TP2 were R5G42 and N9”.

B4: receptor activator of nuclear factor (NF)-κB ligand (protein, UniProt O14788 140-317, looked up)
Tumor necrosis factor ligand …: IRAEKAMVDGSWLDLAKRSKLEAQPFAHLTINATDIPSGSHKVSLSSWYHDRGWAKISNMTFSNGKLIVNQDGFYYLYANICFRHHETSGDLATEYLQLMVYVTKTSIKIPSSHTLMKGGSTKYWSGNSEFHFYSINVGGFFKLRSGEEISIEVSNPSLLDPDQDATYFGAFKVRDID
notes: TNF family cytokine, normal osteoclast differentiation factor
As to B4, the osteoclast differentiation result in assay [5] (control conditions, 50 ng/ml RANKL) is given as “differentiated into osteoclasts”.

The values above are taken from patent US8440804B2, “Polypeptides having modulatory effects on cells” (Ecole Normale Superieure de Lyon, priority 2006, dated 2013).
